Changes are numbered by the printed parent chain.
B1: PSA146/HLA-A*02:01-specific scFv phage clone #2 (scFv, V domains shown)
VH: EVQLVQSGAEVKRPGSSVKVSCKASGGTFSSYAINWVRRAPGQGLEWMGKIIPIPGITNYAQKFQDRVTFTADTSTNIAYMELSSLRSEDTAMYYCARSYKWGSSLVDAWGQGTLVTVSS
VL: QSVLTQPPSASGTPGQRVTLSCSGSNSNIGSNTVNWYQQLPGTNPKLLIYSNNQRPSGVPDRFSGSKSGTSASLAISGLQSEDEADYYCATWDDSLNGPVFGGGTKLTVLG
B2: PSA146/HLA-A*02:01-specific scFv phage clone #3 (scFv, V domains shown)
VH: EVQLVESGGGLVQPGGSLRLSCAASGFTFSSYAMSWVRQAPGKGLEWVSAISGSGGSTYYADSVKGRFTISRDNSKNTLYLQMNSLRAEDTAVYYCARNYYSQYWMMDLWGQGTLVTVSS
VL: QSVLTQPPSVSGAPGQRVTISCTGSSSNFGAGYDVHWYQQLPGAAPKLLIYGDTNRPSGVPDRFSGSKSGTSASLAITGLQAEDEADYYCQSYDTSLSGSVFGGGTKLTVLG
B3: PSA146/HLA-A*02:01-specific scFv phage clone #5 (scFv, V domains shown)
VH: QVQLVQSGAEVKKPGDSVKVSCKPSGYNFLNYGINWVRQAPGQGLEWMGWISTYTGNTNYAQKLQGRVTFTTDTSTSTAYMEMRSLRSDDTAVYYCARSSEYYTWDHWGQGTLVTVSS
VL: B2 VL with F29I, A44T, D53N, T54S, T95S, S100W
B4: PSA146/HLA-A*02:01-specific scFv phage clone #6 (scFv, V domains shown)
VH: EVQLVQSGAEVKKPGASVKVSCKASGYTFTGYYIHWVRQAPGQGLEWMGGFDPEDGETIYAQKFQDRVTMTADTSTDTAYMELSSLRSEDTAVYYCARYGFDYWGQGTLVTVSS
VL: QAVVTQEPSLTVSPGGTVTLTCASSTGAVTSGYYPNWFQLKPGQAPRALIYTTGKKHSWAPARFSGSLLGGKAALTLSGVQPEDEAEYYCLLYSGGVWVFGGGTKLTVLG
B5: PSA146/HLA-A*02:01-specific scFv phage clone #17 (scFv, V domains shown)
VH: QMQLVQSGAEVKKPGESLKISCKGSGYSFTSYWIGWVRQMPGKGLEWMGIIYPGDSDTRYSPSFQGQVTISADKSISTAYLQWSSLKASDTAMYYCARLVVPDAFDIWGQGTMVTVSS
VL: QSVVTQPPSVSAAPGQKVTISCSGSSSNIGNNYVSWYQQLPGTAPKLLIYDNYKRPSGIPDRFSGSKSGTSATLGITGLQTGDEADYYCGTWDSSLSAGVFGGGTKLTVLG

Target: T1, control peptide A2E-1/HLA-A*02:01 complex on T2 cells (member of the P19 mixture) (human)
T1 construct: Loaded on T2 cells as part of the mixture of 19 control peptides
Experiment: flow cytometry, phage on T2 cells
Method: (§1) Individual phage clones from enriched phage display panning pools against PSA146/HLA-A*02:01 complex were incubated in the coated plates. Binding of the phage clones was detected by HRP-conjugated anti-M13 antibodies and developed using HRP substrate. The absorbance was read at 450 nm. […] Then, unique antibody clones were identified through DNA sequencing of ELISA-positive clones. […] T2 cells loaded with different peptides and β2M were first stained with purified scFv phage clones, followed by staining with a mouse anti-M13 mAb, and finally R-PE conjugated horse anti-mouse IgG from Vector Labs. Each step of the staining was performed for between 30-60 minutes on ice and the cells were washed twice between stainings. All 16 clones recognized PSA146-loaded T2 cells specifically. FIG. 3 provides examples of PSA146/HLA-A*02:01 specific phage clone binding to peptide-loaded T2 cells through FACS.

Row | Binder | binding result
1 | B1 | no binding
2 | B2 | no binding
3 | B3 | no binding
4 | B4 | no binding
5 | B5 | no binding

Target: T2, control peptide A2E-2/HLA-A*02:01 complex on T2 cells (member of the P19 mixture) (human)
T2 construct: Loaded on T2 cells as part of the mixture of 19 control peptides
Experiment: flow cytometry, phage on T2 cells
Method: as §1

Row | Binder | binding result
6 | B1 | no binding
7 | B2 | no binding
8 | B3 | no binding
9 | B4 | no binding
10 | B5 | no binding

Target: T3, control peptide A2E-3/HLA-A*02:01 complex on T2 cells (member of the P19 mixture) (human)
T3 construct: Loaded on T2 cells as part of the mixture of 19 control peptides
Experiment: flow cytometry, phage on T2 cells
Method: as §1

Row | Binder | binding result
11 | B1 | no binding
12 | B2 | no binding
13 | B3 | no binding
14 | B4 | no binding
15 | B5 | no binding

Target: T4, control peptide A2E-4/HLA-A*02:01 complex on T2 cells (member of the P19 mixture) (human)
T4 construct: Loaded on T2 cells as part of the mixture of 19 control peptides
Experiment: flow cytometry, phage on T2 cells
Method: as §1

Row | Binder | binding result
16 | B1 | no binding
17 | B2 | no binding
18 | B3 | no binding
19 | B4 | no binding
20 | B5 | no binding

Target: T5, control peptide A2E-5/HLA-A*02:01 complex on T2 cells (member of the P19 mixture) (human)
T5 construct: Loaded on T2 cells as part of the mixture of 19 control peptides
Experiment: flow cytometry, phage on T2 cells
Method: as §1

Row | Binder | binding result
21 | B1 | no binding
22 | B2 | no binding
23 | B3 | no binding
24 | B4 | no binding
25 | B5 | no binding

Target: T6, control peptide A2E-6/HLA-A*02:01 complex on T2 cells (member of the P19 mixture) (human)
T6 construct: Loaded on T2 cells as part of the mixture of 19 control peptides
Experiment: flow cytometry, phage on T2 cells
Method: as §1

Row | Binder | binding result
26 | B1 | no binding
27 | B2 | no binding
28 | B3 | no binding
29 | B4 | no binding
30 | B5 | no binding

Target: T7, control peptide A2E-7/HLA-A*02:01 complex on T2 cells (member of the P19 mixture) (human)
T7 construct: Loaded on T2 cells as part of the mixture of 19 control peptides
Experiment: flow cytometry, phage on T2 cells
Method: as §1

Row | Binder | binding result
31 | B1 | no binding
32 | B2 | no binding
33 | B3 | no binding
34 | B4 | no binding
35 | B5 | no binding

Target: T8, control peptide A2E-8/HLA-A*02:01 complex on T2 cells (member of the P19 mixture) (human)
T8 construct: Loaded on T2 cells as part of the mixture of 19 control peptides
Experiment: flow cytometry, phage on T2 cells
Method: as §1

Row | Binder | binding result
36 | B1 | no binding
37 | B2 | no binding
38 | B3 | no binding
39 | B4 | no binding
40 | B5 | no binding

Target: T9, control peptide A2E-9/HLA-A*02:01 complex on T2 cells (member of the P19 mixture) (human)
T9 construct: Loaded on T2 cells as part of the mixture of 19 control peptides
Experiment: flow cytometry, phage on T2 cells
Method: as §1

Row | Binder | binding result
41 | B1 | no binding
42 | B2 | no binding
43 | B3 | no binding
44 | B4 | no binding
45 | B5 | no binding

Target: T10, control peptide A2E-10/HLA-A*02:01 complex on T2 cells (member of the P19 mixture) (human)
T10 construct: Loaded on T2 cells as part of the mixture of 19 control peptides
Experiment: flow cytometry, phage on T2 cells
Method: as §1

Row | Binder | binding result
46 | B1 | no binding
47 | B2 | no binding
48 | B3 | no binding
49 | B4 | no binding
50 | B5 | no binding

Target: T11, control peptide A2E-11/HLA-A*02:01 complex on T2 cells (member of the P19 mixture) (human)
T11 construct: Loaded on T2 cells as part of the mixture of 19 control peptides
Experiment: flow cytometry, phage on T2 cells
Method: as §1

Row | Binder | binding result
51 | B1 | no binding
52 | B2 | no binding
53 | B3 | no binding
54 | B4 | no binding
55 | B5 | no binding

Target: T12, control peptide A2E-13/HLA-A*02:01 complex on T2 cells (member of the P19 mixture) (human)
T12 construct: Loaded on T2 cells as part of the mixture of 19 control peptides
Experiment: flow cytometry, phage on T2 cells
Method: as §1

Row | Binder | binding result
56 | B1 | no binding
57 | B2 | no binding
58 | B3 | no binding
59 | B4 | no binding
60 | B5 | no binding

Target: T13, control peptide A2E-14/HLA-A*02:01 complex on T2 cells (member of the P19 mixture) (human)
T13 construct: Loaded on T2 cells as part of the mixture of 19 control peptides
Experiment: flow cytometry, phage on T2 cells
Method: as §1

Row | Binder | binding result
61 | B1 | no binding
62 | B2 | no binding
63 | B3 | no binding
64 | B4 | no binding
65 | B5 | no binding

Target: T14, control peptide A2E-15/HLA-A*02:01 complex on T2 cells (member of the P19 mixture) (human)
T14 construct: Loaded on T2 cells as part of the mixture of 19 control peptides
Experiment: flow cytometry, phage on T2 cells
Method: as §1

Row | Binder | binding result
66 | B1 | no binding
67 | B2 | no binding
68 | B3 | no binding
69 | B4 | no binding
70 | B5 | no binding

Target: T15, control peptide A2E-16/HLA-A*02:01 complex on T2 cells (member of the P19 mixture) (human)
T15 construct: Loaded on T2 cells as part of the mixture of 19 control peptides
Experiment: flow cytometry, phage on T2 cells
Method: as §1

Row | Binder | binding result
71 | B1 | no binding
72 | B2 | no binding
73 | B3 | no binding
74 | B4 | no binding
75 | B5 | no binding

Target: T16, control peptide A2E-17/HLA-A*02:01 complex on T2 cells (member of the P19 mixture) (human)
T16 construct: Loaded on T2 cells as part of the mixture of 19 control peptides
Experiment: flow cytometry, phage on T2 cells
Method: as §1

Row | Binder | binding result
76 | B1 | no binding
77 | B2 | no binding
78 | B3 | no binding
79 | B4 | no binding
80 | B5 | no binding

Target: T17, control peptide A2E-19/HLA-A*02:01 complex on T2 cells (member of the P19 mixture) (human)
T17 construct: Loaded on T2 cells as part of the mixture of 19 control peptides
Experiment: flow cytometry, phage on T2 cells
Method: as §1

Row | Binder | binding result
81 | B1 | no binding
82 | B2 | no binding
83 | B3 | no binding
84 | B4 | no binding
85 | B5 | no binding

Target: T18, control peptide A2E-21/HLA-A*02:01 complex on T2 cells (member of the P19 mixture) (human)
T18 construct: Loaded on T2 cells as part of the mixture of 19 control peptides
Experiment: flow cytometry, phage on T2 cells
Method: as §1

Row | Binder | binding result
86 | B1 | no binding
87 | B2 | no binding
88 | B3 | no binding
89 | B4 | no binding
90 | B5 | no binding

Target: T19, control peptide A2E-23/HLA-A*02:01 complex on T2 cells (member of the P19 mixture) (human)
T19 construct: Loaded on T2 cells as part of the mixture of 19 control peptides
Experiment: flow cytometry, phage on T2 cells
Method: as §1

Row | Binder | binding result
91 | B1 | no binding
92 | B2 | no binding
93 | B3 | no binding
94 | B4 | no binding
95 | B5 | no binding

Target: T20, Bio-P19 member A2E-23 (chain 2 carries a C-terminal BirA substrate peptide (BSP), enzymatically biotinylated; the BSP letters are not given in the patent and are left out)
T20 construct: also called biotinylated control peptide A2E-23/HLA-A*02:01 monomer
Experiment: phage ELISA, streptavidin plate, anti-M13-HRP
Outline: (§2)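 T2 cells + peptide + β2M → purified scFv phage → mouse anti-M13 mAb → R-PE anti-mouse IgG; each step 30-60 min on ice, two washes between. ELISA: phage clones on coated plate, HRP anti-M13, A450.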

Row | Binder | binding result
96 | B1 | no binding
97 | B2 | no binding
98 | B3 | no binding
99 | B4 | no binding

Target: T21, Bio-P19 member A2E-2 (chain 2 carries a C-terminal BirA substrate peptide (BSP), enzymatically biotinylated; the BSP letters are not given in the patent and are left out)
T21 construct: also called biotinylated control peptide A2E-2/HLA-A*02:01 monomer
Experiment: phage ELISA, streptavidin plate, anti-M13-HRP
Outline: as §2

Row | Binder | binding result
100 | B1 | no binding
101 | B2 | no binding
102 | B3 | no binding
103 | B4 | no binding

Target: T22, Bio-P19 member A2E-3 (chain 2 carries a C-terminal BirA substrate peptide (BSP), enzymatically biotinylated; the BSP letters are not given in the patent and are left out)
T22 construct: also called biotinylated control peptide A2E-3/HLA-A*02:01 monomer
Experiment: phage ELISA, streptavidin plate, anti-M13-HRP
Outline: as §2

Row | Binder | binding result
104 | B1 | no binding
105 | B2 | no binding
106 | B3 | no binding
107 | B4 | no binding

Target: T23, PSA 146-154 peptide/HLA-A*02:01 complex on the cell surface (human)
T23 construct: also called PSA146/HLA-A*02:01; PSA146-loaded T2 cells
Experiment: flow cytometry, phage on T2 cells, anti-M13 + R-PE anti-mouse IgG
Outline: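 Phage ELISA: individual scFv phage clones from panning pools enriched against PSA146/HLA-A*02:01 were incubated in coated streptavidin plates; binding was detected with HRP anti-M13 and HRP substrate, read at 450 nm. For flow cytometry, T2 cells loaded with peptide and β2M were stained with purified phage clones.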

Row | Binder | binding result
108 | B1 | binds
109 | B2 | binds
110 | B3 | binds
111 | B4 | binds
112 | B5 | binds
